Values of other authors, collected in publication PMC10024700.

Experiments:
[1] = target: Protocadherin-15 EC1-2 (Mus musculus) (UniProt Q99PJ1); assay: SPR
[2] = target: Protocadherin-15 EC1-2 (Mus musculus) (UniProt Q99PJ1); assay: ITC
[3] = target: Cadherin-23 EC1-2 (Mus musculus) (UniProt Q99PF4); assay: AUC

Kd [1]: 840 nM
Kd [2]: 2900 nM
Kd [3]: 18 µM
Substance: Cadherin-23 EC1-2 (from UniProt Q99PF4)
